Data on 3 substances can be found in paper PMC6158747.

In the series the test system is CytR DNA-binding domain. Briefly: fluorescence anisotropy. The settings on record: Stopped-flow kinetics: 50 mM sodium phosphate, 30 mM NaCl, 1 mM EDTA, pH 6.0, 278 K, 300 nM Alexa-532 udp half-site, equilibrium isotherms at 293 K (buffer not …). (Polarisation of emitted light reports the rotation of a fluorescent probe.)

The substance PurR binding site (PurFO) came in with a K half (293 K, first of two overlapping titration profiles (K1/2,1)) of 0.4 µM.

On to random DNA (Poly-AC DNA), for which the K half (293 K, similar affinity to udp half-site) was 10 µM.

udp half-site (Udp-Half): the K half is 10 µM.
